Test: label from the status in PepcDB records
With “MIWRGEKLISNKVKIVRLLNKSKKSLLRGIFSRTTVIAILLILQLLFLLASYSWLEQYRVWLATVEHILTIGAVLYLVNSEMDALSRVTWLILVMIAPLLGAMFLMYTKFDWGYRGLKQRLETLIDESQIYLEDDPETLNQLKSSTSTTYHLVQYFEKAHGNFPVYRNTDVTFLPTGEAFFEKMKEELLKAKKYIFLEFFIIDEGIMWGEILSILEQKVEEGVEVRILYDGMIEITKLSFDYTKRLEKIGIKAKAFSPISPFISTYYNYRDHRKIVVIDGVVGMTGGVNLADEYINHIELFGHWKDSGIMLKGKAVDSFLLLFLQMWSITEEKMLVAPYLGVHDDLVENEGYVIPYGDSPLDTDKVGENVYIDILNHAREYVYIMTPYLILDSELEHAIQFAAERGVDVRIIMPGIPDKPIPYALAKTYYQALTKSGVKIYEYTLGFVHSKIFLSDNTKAVVGTINLDYRSLYHHFECAVYLYKVDAIQDIYRDYMDTLNKSRLVSLKDINNIPKFQKVIGIVTKTIAPLL” the protein production was “failed”. With “MIYENHANTAENNGPLALVLGANGGVGSHVLKMLLQRGWQVRALTRQRVAAGASDGIERVTGDVMNRQDVMDAAKGATLIVHAVNPPGYRDWERQVLPMLDNTIAAAEACGARILLPGTVYNFGPDAFPLLKEDSPQQPFTRKGALRVEMERRLKMASMRGVPVLIVRAGDFFGPDAKNNWFSQMLVRPGKPVRSVQNPAAPHAGHQWAYLPDVAETIGRLLDRSGELPPFAVYHMEGFWDFDGLQLVGAIERAVGRPVKMRRMSWLAIKLAAPFVPLFREVLEMQYLWHMPLRMSNGKLTDFLGAEPKTPVDIAVSATLTSLGCIEQPRVPASLHRPVDAGGRV” the protein production was “failed”. In the case of “MIYLFSHAGLRDLRDFIDRSTLFAFDLDGTLAPIVSDPAGIMIPPDVHERLVRLNGTASVAVVTGRARVDAARHLGFAPRFLVGNHGAEGLPGADAAEREFIGLCRGWMTQLGELLPEGEGTGIVMEDKSATLSLHYRNAPDRENAHQRILAAVSRLLPAPRRVSGKLVENLVPAAAPHKGDALRCIMRHLGCARALFVGDDVTDEDVFRLGDEAIFGIRVGNSGGSAARYFIRGQDEMAPLLDEILAVL”, the protein production is reported as “failed”. In the case of “MIYMPIVVAVDKKSDRAERVLRFAAEEARLRGVPVYVVHSLPGGGRTKDEDIIEAKETLSWAVSIIRKEGAEGEEHLLVRGKEPPDDIVDFADEVDAIAIVIGIRKRSPTGKLIFGSVARDVILKANKPVICIK”, the protein production is reported as “not failed”. In the case of “MKAANSGRTAAALECFERVVKLQSTPVNWSYLAFCVARERQQFEHATRLCEEAVRREPRSSVLYLNLGKVYLLSGRKDDAIRTFRQGLLYERNTLIESELRRLGLRKPPVLNFLAREHPVNKYLGIMLKKLKIRLEHHHHHH”, the protein production is reported as “failed”. With “MKAFFSFVIRWVIPLLGLIALSLIIWFIGPLLEFLVPEGRRWALIIFIFALWIGYRVFCIIQARRNAAKVLQSLAADTPPDPDSVATAEELAALRQRMDEALALLKKAKLGGDERRNLYELPWYVIIGPPGSGKTTALVNSGLHFPLAAQLGAGAVRGVGGTRNCDWWFTDQAVLLDTAGRYTTQDSHATVDKAAWLGFLDLLKTQRSRRPIDGAFVAISLSDLLLGSEAERAAHAAAIRLRIQELYTQLGVRFPIYLMLTKLDLVPGFMEFFDSLSKEERAQVWGMTFALDDGKSGDSPLAHLPAELAALEQRLNERLVERLQQERDPARRDLIYGFPQQFAALKESLQSFLEGVFKPNAFEERVLLRGVYFTSGTQEGSPIDRLIGAMAQSMNLDRQHLARQTGTGRSYFIEKLFSAVAFAERGLVGVNPKVERRRKWIARGALAGTVALVLVVSTLWIISYRANQAYIAQVDQRVGPVRQDVQNLSPAQRDVLAVLPLLNATRHLAGDAPGWAEGLGLYQGDMLEAESASVYRKLLVAVFAPRLMTRIEEQLHSGGNSDFLYEGLKAYLMLADSEHYDPDFIKAWITLDWDHTLARDLPPEQRQALTGHLQALFEKHPPNARLDQRLIDDLRRQLQQLPVAQRVYDRVKRAKLPDGVPDFRLSEAGGRDAALVFTRKSGKPLSEPLSGLFTAKGYRQGFLLASLNQAGTLAEEQWVLGRDQADQQNVASLAADVRRLYFQDYLRQWDALLADIDFVPITSVAQAADVLRILSGPTSPLKKLLVAVAKETDLQQEERLLAAQGQKVEGGVDQLKQRLGNLLGQEQSANPAAVASSEDPVSAHFAELNSLVSKGEGEPAAIDGLLADMNALYVQVSAMVGASGDALLGEAKNQASAAAARVSLTAERQPPVVQGLVKSVVGSTTNTMMGGVRNQLNAAWVSEVVNVYRQSLSGRYPMSPGSSRDATLEDFGQFFGTGGVMDNYFRKYLQPYVNTSTTTWSWQPGAAQKLGISPGVLQTFQRASNIRDAFFRSSGGTQPAVRFELKPVAMDANISQFLLDLDGQQLSYDHGPSRPVAMQWPNPGSIGVVRLSIMPPSATGRSGITLDGPWAWFRLLEQSDLTATNSPDRFNLRLRVDGASISYELRASSAFNPFKSRVLSGFSLPERL” the protein production was “failed”. With “MKAKEVSLVALFVALTSVGAQISVSIGPVPLTLQVFFVILAGLVLGPKLGFLSILIYDILGALGIPVFAGFSGGIAHILGPTGGYIIAFPIATFIAGLGRGKVRYLTSLMGLLVIYLIGWMWLARFVGFNKAFILGVLPFIVPDIVKAATAVIIAERLQGNT” the protein production was “failed”. In the case of “MKANAIASDIKISKRDLEVAALAVIGTVAYIHYLWSFVLKITSPILIARGIFETTYSVLSIGLAKYVRIYYPLGIASSFTGAALTVIKLHLYESEIFSIINIVFDIFSVPVCAFLFIKNMEVINWH”, the protein production is reported as “failed”. In the case of “MKANNHFKDFAWKKCLLGASVVALLVGCSPHIIETNEVALKLNYHPASEKVQALDEKILLLRPAFQYSDNIAKEYENKFKNQTALKVEQILQNQGYKVISVDSSDKDDLSFSQKKEGYLAVAMNGEIVLRPDPKRTIQKKSEPGLLFSTGLDKMEGVLIPAGFVKVTILEPMSGESLDSFTMDLSELDIQEKFLKTTHSSHSGGLVSTMVKGTDNSNDAIKSALNKIFANIMQEIDKKLTQKNLESYQKDAKELKGKRNR”, the protein production is reported as “failed”. For “MKAPELQIQQWFNSATDLTLADLRGKVIVIEAFQMLCPGCVMHGIPLAQKVRAAFPEDKVAVLGLHTVFEHHEAMTPISLKAFLHEYRIKFPVGVDQPGDGAMPRTMAAYQMRGTPSLLLIDKAGDLRAHHFGDVSELLLGAEIATLLGEAAPSVQKQAGTPQGDANCDNDGCTV”, the protein production was “not failed”. In the case of “MKAYTKLLASLVLLSGAYGAPGFANTPELSDKTFRTVNKVQELIATEKYADALSKLNSALSSTSKKQYDRAVLLQQMGFLYSLQDDYPKAAKYFADALSLNALPVPVAQQVRYSLAQLYLAEGQFKKSVATMNEWFKIAETTEEKPQAHAYITLASAYVQLEDYKNAIPPAKQAIAMSKEPSESWYQLLMSAHYELKQFKSVAGVLKILTTKYPKNKRYWTQLSGIYMELNQERNALSTLEMAHKMGLLEGEKEYLRLVNFQAYQGVPFRAAKTLQAAFDNGHVERNAKNLETLGSFWQQAQELEQAIDVYQQAYNLAPQAKTQIKIARLMILDKQYTEATKFTQNAAPDAKHEQKGELSYIRGMAYFELNQPSNALKAMKSAAQSPDMRAMASPWINFLESQG”, the protein production is reported as “failed”. For “MKCKDDMSAVLTAEQALKLVGEMFVYHMPFNRALGMELERYEKEFAQLAFKNQPMMVGNWAQSILHGGVIASALDVAAGLVCVGSTLTRHETISEDELRQRLSRMGTIDLRVDYLRPGRGERFTATSSLLRAGNKVAVARVELHNEEQLYIASATYMVG”, the protein production was “failed”. In the case of “MKCKRLNEVIELLQPAWQKEPDLNLLQFLQKLAKESGFDGELADLTDDILIYHLKMRDSAKDAVIPGLQKDYEEDFKTALLRARGVIKE”, the protein production is reported as “failed”. For “MKCNERDCNNDNGEEDEKDTNTTIAVKLPATTALIVGYDPIDDQHKALSLKRKRTEKLSFINALKGFVQWGSEAVFIEYKGKLASIDLETVKSLGALMDSKEPPAPVNLLF”, the protein production was “failed”. For “MKDKIIDNAITLFSEKGYDGTTLDDIAKSVNIKKASLYYHFDSKKSIYEQSVKCCFDYLNNIIMMNQNKSNYSIDALYQFLFEFIFDIEERYIRMYVQLSNTPEEFSGNIYGQIQDLNQSLSKEIAKFYDESKIKMTKEDFQNLILLFLESWYLKASFSQKFGAVEESKSQFKDEVYSLLNIFLKK”, the protein production was “failed”. For “MKDKRTPMNAFRPKAQTALVVALSLFMAACSNNPLMRTSAATSSDVADEIDRTLEQAEQSQRAASNVSAVPAPSAADISSQLLPPLSSSPQQDERFDVNASEVPASSFFEALVAGTRYNVVVRPDVATTVSLRLSDVTVPEVMDIAADLYGLDITRSGRLYRVAADQVQTRLFPIDYLHFKRRGGSETRVSSGQVSSSRSNREGAGSNDNNEDNETRNLVGTTISTQTESDFWRDIRDALNMIVGGDNGQVVVNPGAGLVMVRAGADDLRLVENYLRKTELIMQRQVVLEAKILEVGLNEGYQQGIDWNDVQSSAGRADYFTSQSLGGQQIRTPDIGGLFSATVSAGDFTGLIELLGQQGNVQILSSPRISTVNNQKAVIKVGTDEFFVTDIDFDDNNSAVTATDSTSTSVELTPFFSGISLDVTPQIAEDGAITLHVHPSVSEVADQEKVITIGERDVTLPLARSTVRETDSVIRAESGQIVVIGGLIQNSSEDNNSAVPFFSEIPLLGELFKQRNFESRKSELVILLRPVVANAGQMQADVSASRERMNVLRELLNSSESVKPQPETAPR”, the protein production was “failed”. With “MKDLIKVQQKLIPDLIDKMYRRFYILSTISQNQPVGRRSLSEHMDMTERVLRSETDMLKKQELIRVKPTGMEITNEGTEVLAQLGEYFNVYSDDHKLASAIKDKFHIKDVHVIPGDSDSNRTVKREMGQQAGQLLEGILYEDAIVSVTGGSTMACVSESIHLLPFNVFFVPARGGLGENVVYQANTIASSMAQQAGGYYTTLYVPDNVSESTYDTLMLEPSVMHTLDKIKQANITIHGIGDALKMAHRRQSSQNVIDNLQHHQAVGEAFGYYFDAQGQIVHKVKTIGLQLEDLENKDFIFAVAGGQSKGEAIKAYLSIAPENTVLITDEAAAKVILQ” the protein production was “not failed”. With “MKDPNSQYQIDYVLLFILFAIGIVSCCAIASAQASLPPFLQNVNFVLKQIQWYFIGFIAIGVIMIIDFDRYQKIAWYLYSFAMVLLIGLELQVPGAVTIKGATAWYRLPGIGNFQPSEIMKLFLIIVIGRIIANHNEKYFSQTIHDDFLLLGKIFATSLPPLLLIAKEPDLGNTMVISAMLAAMILVSGIRWRFIFGLVSGTFVAGSTLIYIFFTHTDFFKAHILKEYQLNRFYGWLAPYKYDAQGYQLRQAFLATGSGEMQGKGWENGQVYFPEPHTDFIFTNVAEQFGFLGASVIISLFFLLIFRMIHIALESNDPFGSYICAGTIGMFTFQVFQNIGMTIGLLPITGITLPLMSYGGSSLLTYMIAIGFILNVRSRTKIFMFK” the protein production was “failed”. In the case of “MKDTDETAFLNSLFMDFTSENELELFLKSLDEVWSEDLYSRLSAAGLIRHVISKVWNKEQHRISMVFEYDSKEGYQKCQEIIDKEFGITLKEKLKKFVFKIHNNRGVVVSEFIRST”, the protein production is reported as “not failed”. In the case of “MKDTFRLENQTIYFGTERAISASPQTIWRYLTETDKLKQWFPELEIGELGVNGFWRFILPDFEETMPFTDYAEEKYLGVTWDTGIIYFDLKEQAPHQTLLVFSESLPENFTTPRHKDIAGWSIVLNRLKQVVETPDAAPEKIDFPQIENHYLEKLTNLEN”, the protein production is reported as “not failed”. For “MKEGKWFASANNQNKFLDPRERGNILNYLKVCLLLARAVRRMHAAGLCHSDLSYKNVLIDPEQGHACIIDVDGLVVPGKFPPDVVGTPDFIAPEVVKTSHLLKEDPQRILPNITTDRHALSVLIYMYLFYRHPLRGGKIHDMDDEVRDESLAMGERALFIEHPTDRSNAVKLNQVKPSSLPWADPQKVPYTIMGPYLTQLFEKAFIDGLHDPSKRPTADEWETALVKTVDLIQPCQNTACEQKWYVFSGKTKPVCPYCLEHHHHHH”, the protein production was “failed”.
